Values joined by “and” are separate entries in the source; they are usually repeats but may differ in a detail not shown here. Equal values may be shown once.
What was measured:
Format in all cases: biochemical
[1] = Effect of temperature on EstATII esterase activity (p-nitrophenyl butyrate hydrolysis)
Experimental: (§1) Enzyme activity was determined by measuring the formation of p-nitrophenol (pNP) from the enzymatic hydrolysis of the p-nitrophenyl ester; p-nitrophenyl butyrate (Sigma-Aldrich). The reaction mixture contained p-nitrophenyl butyrate (pNPB) to a final concentration 0.1 mM and 50 mM Tris-HCl pH=8. In this study, the standard reaction was conducted at 65° C., initiated by the addition of EstATII and terminated by the addition of 10% SDS. Measurements were done at 410 nm using UV-spectrophotometer (Ultrospec 3100 pro, Amersham Biosciences) unless stated otherwise^20. All experiments were performed in triplicates. Substrate specificity of EstATII was determined using p-nitrophenol esters with varying side chain length. Short-chain fatty acid esters used were PNP-acetate (C2), PNP-butyrate (C4) and PNP-valerate (C5) and long-chain fatty acid esters used were PNP-decanoate (C10), PNP-dodecanoate C12, PNP-myristate (C14) and PNP-palmitate (C16). The optimum temperature for the activity of EstATII was determined at a temperature range 30-80° C. The optimum pH for the activity of EstATII was measured at a pH range (3-9.5) using the following buffers: 50 mM sodium acetate (pH 3-5.5), 50 mM sodium phosphate (pH 6, 7.5) and 50 mM Tris-HCL (pH 7.5-9.5). Formation of pNP was measured at 348 nm (the pH-independent isosbestic wavelength of pNP)^21. The effect of NaCl concentration on enzyme activity was measured at different NaCl concentrations (0-4.5 M) under standard assay conditions. To assess the effect of metal ions on enzyme activity, cations were added to a final concentration of 1 mM, and relative activity measured at the above-described standard conditions. The effect of detergents (at final concentrations 0.1 and 1%) and inhibitors (final concentration 1 mM) on enzyme activity was tested at the above-described standard assay conditions.

[2] = Effect of pH on EstATII esterase activity (pNP formation measured at 348 nm)
Experimental: as §1

[3] = Substrate specificity of EstATII
Experimental: as §1

[4] = Effect of NaCl concentration on EstATII activity; settings: for Relative Activity: absence of NaCl defined as 100%
Experimental: as §1

[5] = Effect of metal ions on EstATII activity
Experimental: as §1

[6] = Effect of detergents, reducing and modifying agents on EstATII activity; settings: standard assay conditions
Experimental: as §1

[7] = cation 1 mM, standard conditions

B1: EstATII: novel esterase from the lower convective layer of the Atlantis II brine pool, Red Sea; 314 amino acids, HSL family (protein)
chain: MSRYVDELYRNPGQPGLRALLRGMLKLLFRGLIRPPVPFAVQALVLRLLTLGMPLARGVTRSTEQIAGRPCMWHRPAAGGNGRVLLYLHGGAFVIGSPQTHRGICSALASRGQFDVCALDYRLAPAHPAPAACDDAVAAYQALLQRGYAPAQITLIGDSAGGNLVLVTAQKLAALKLPLPASLVCFSPVTDMTAEQLHAPAAGDPLLHPSWLDSARDAYCPAGLDRADPMVSPLFGQLKGLPPLLLQVGEDEVLLNDSLRLAEAARAADVAVRLERYEDLWHVFQAHAGLLHSADAALQRVVDFVNSAQTDSVS
**Q.** Which “Relative Activity” value ([1]; 30 °C, pNPB 0.1 mM, 50 mM Tris-HCl pH 8, 65 °C defined as 100%) does the source give for B1 here?
**A.** The value was 56.3 ± 0.8%.

**Q.** And the “Relative Activity” value ([1]; 35 °C, 65 °C defined as 100%)?
**A.** The value was 59.9 ± 1%.

**Q.** And the “Relative Activity” value ([1]; 40 °C, 65 °C defined as 100%)?
**A.** The value was 65.3 ± 1.8%.

**Q.** And the “Relative Activity” value ([1]; 45 °C, 65 °C defined as 100%)?
**A.** Its value is 86.9 ± 0.9%.

**Q.** What about the “Relative Activity” value ([1]; 50 °C, 65 °C defined as 100%) of the same molecule?
**A.** The value was 90.9 ± 2%.

**Q.** What about the “Relative Activity” value ([1]; 55 °C, 65 °C defined as 100%) of the same molecule?
**A.** The value was 93.9 ± 1%.

**Q.** What about the “Relative Activity” value ([1]; 60 °C, 65 °C defined as 100%) of the same molecule?
**A.** The value was 95.9 ± 0.3%.

**Q.** What about the “Relative Activity” value ([1]; 65 °C, optimum condition (defined as 100%)) of the same molecule?
**A.** The value was 100 ± 0.2%.

**Q.** And the “Relative Activity” value ([1]; 70 °C, 65 °C defined as 100%)?
**A.** The value was 91.6 ± 0.15%.

**Q.** What about the “Relative Activity” value ([1]; 75 °C, 65 °C defined as 100%) of the same molecule?
**A.** Its value is 76.7 ± 0.3%.

**Q.** And the “Temp ° C. (apparent optimum temperature)” value ([1]; range tested 30-80 °C)?
**A.** Its value is 65 °C.

**Q.** What about the “Activity of the enzyme” value ([1]; temperatures ranging from 45° C. to 75° C.) of the same molecule?
**A.** Its value is over 70%.

**Q.** What about the “Relative Activity” value ([2]; pH 3, 50 mM sodium acetate, pH 8.5 defined as 100%) of the same molecule?
**A.** The value was 0%.

**Q.** What about the “Relative Activity” value ([2]; pH 4, 50 mM sodium acetate, pH 8.5 defined as 100%) of the same molecule?
**A.** Its value is 0%.

**Q.** What about the “Relative Activity” value ([2]; pH 5, 50 mM sodium acetate, pH 8.5 defined as 100%) of the same molecule?
**A.** Its value is 0%.

**Q.** What about the “Relative Activity” value ([2]; pH 5.5, 50 mM sodium acetate, pH 8.5 defined as 100%) of the same molecule?
**A.** Its value is 13.1 ± 0.2%.

**Q.** What about the “Relative Activity” value ([2]; pH 6, 50 mM sodium phosphate, pH 8.5 defined as 100%) of the same molecule?
**A.** Its value is 38.5 ± 1.2%.

**Q.** What about the “Relative Activity” value ([2]; pH 6.5, pH 8.5 defined as 100%) of the same molecule?
**A.** The value was 43.2 ± 2%.

**Q.** And the “Relative Activity” value ([2]; pH 7, pH 8.5 defined as 100%)?
**A.** Its value is 81.5 ± 1%.

**Q.** And the “Relative Activity” value ([2]; pH 7.5 (Na Phosphate), pH 8.5 defined as 100%)?
**A.** Its value is 88 ± 1%.

**Q.** And the “Relative Activity” value ([2]; pH 7.5 (Tris.HCl), pH 8.5 defined as 100%)?
**A.** Its value is 66.1 ± 0.2%.

**Q.** What about the “Relative Activity” value ([2]; pH 8, 50 mM Tris-HCl, pH 8.5 defined as 100%) of the same molecule?
**A.** The value was 84.7 ± 1.1%.

**Q.** And the “Relative Activity” value ([2]; pH 8.5, optimum condition (defined as 100%))?
**A.** Its value is 100 ± 3%.

**Q.** What about the “Relative Activity” value ([2]; pH 9, 50 mM Tris-HCl, pH 8.5 defined as 100%) of the same molecule?
**A.** Its value is 60 ± 2%.

**Q.** And the “Activity of the enzyme” value ([2]; pH lower than 5.5)?
**A.** Its value is “No activity”.

**Q.** And the “Activity of the enzyme” value ([2]; pH=7-9)?
**A.** The value was over 50%.

**Q.** What about the “pH (highest activity)” value ([2]; range tested pH 3-9) of the same molecule?
**A.** Its value is 8.5.

**Q.** What about the “Activity towards short-chain fatty acid esters” value ([3]; C2, C4 and C5 p-nitrophenol esters) of the same molecule?
**A.** The value was “active”.

**Q.** And the “Activity towards long-chain fatty acid esters” value ([3]; C10, C12, C14 and C16 p-nitrophenol esters)?
**A.** The value was “no activity”.

**Q.** And the “Relative Activity” value ([3]; substrate pNP-acetate (C2))?
**A.** The value was 100 ± 3%.

**Q.** What about the “Relative Activity” value ([3]; substrate pNP-butyrate (C4)) of the same molecule?
**A.** The value was 61.9 ± 0.8%.

**Q.** And the “Relative Activity” value ([3]; substrate pNP-decanoate (C10))?
**A.** Its value is 0%.

**Q.** What about the “Relative Activity” value ([3]; substrate pNP-dodecanoate (C12)) of the same molecule?
**A.** Its value is 0%.

**Q.** What about the “Relative Activity” value ([3]; substrate pNP-myristate (C14)) of the same molecule?
**A.** The value was 0%.

**Q.** What about the “Relative Activity” value ([3]; substrate pNP-palmitate (C16)) of the same molecule?
**A.** Its value is 0%.

**Q.** And the “Relative Activity” value ([3]; substrate pNP-valerate (C5))?
**A.** Its value is 40.5 ± 1.2%.

**Q.** What about the “Relative Activity” value ([4]; 0.5M Sodium Chloride) of the same molecule?
**A.** The value was 102.2 ± 2%.

**Q.** And the “Relative Activity” value ([4]; 1M Sodium Chloride)?
**A.** Its value is 99.9 ± 0.5%.

**Q.** And the “Relative Activity” value ([4]; 1.5M Sodium Chloride)?
**A.** The value was 120 ± 1%.

**Q.** And the “Relative Activity” value ([4]; 2M Sodium Chloride)?
**A.** The value was 122.9 ± 1%.

**Q.** And the “Relative Activity” value ([4]; 2.5M Sodium Chloride)?
**A.** The value was 102.4 ± 1.8%.

**Q.** And the “Relative Activity” value ([4]; 3M Sodium Chloride)?
**A.** Its value is 73.8 ± 3.8%.

**Q.** And the “Relative Activity” value ([4]; 3.5M Sodium Chloride)?
**A.** Its value is 65.3 ± 4.6%.

**Q.** And the “Relative Activity” value ([4]; 4M Sodium Chloride)?
**A.** The value was 53.8 ± 1%.

**Q.** And the “Relative Activity” value ([4]; 4.5M Sodium Chloride)?
**A.** Its value is 39.7 ± 1.7%.

**Q.** And the “NaCl concentration of highest activity” value ([4]; range tested 0M-4.5M NaCl)?
**A.** The value was 2 M.

**Q.** And the Activity ([4]; up to 4M NaCl)?
**A.** Its Activity is over 50%.

**Q.** And the Enzyme activity ([4]; up to 4.5M NaCl)?
**A.** The Enzyme activity was “maintained”.

**Q.** And the “Relative activity with Ba^2+” value [5, 7]?
**A.** The value was 158% and 158.3 ± 2.2%.

**Q.** What about the “Relative activity with Co^2+” value [5, 7] of the same molecule?
**A.** The value was 104% and 104 ± 2%.

**Q.** What about the “Relative activity with Cu^2+” value [5, 7] of the same molecule?
**A.** The value was 94.8 ± 0.1%.

**Q.** And the “Relative activity with Fe^3+” value [5, 7]?
**A.** The value was 96.2 ± 0.7%.

**Q.** What about the “Relative activity with Hg^2+” value [5, 7] of the same molecule?
**A.** The value was 60.9 ± 0.4%.

**Q.** What about the “Relative activity with Mg^2+” value [5, 7] of the same molecule?
**A.** Its value is 90.6 ± 3.6%.

**Q.** What about the “Relative activity with Mn^2+” value [5, 7] of the same molecule?
**A.** The value was 111% and 111.8 ± 0.1%.

**Q.** And the “Relative activity with Zn^2+” value [5, 7]?
**A.** The value was 85.2 ± 4.4%.

**Q.** What about the “Relative activity with Ca^2+” value ([5]; cation 1 mM, standard conditions (65 °C, Tris-HCl pH 8, pNPB)) of the same molecule?
**A.** Its value is 94.8 ± 3%.

**Q.** And the “Activity with the rest of the metal ions tested” value ([5]; metal ions other than Barium, Manganese, Cobalt, 1 mM)?
**A.** The value was “above 60%”.

**Q.** And the “Resistance to inhibition by all metal ions tested” value ([5]; significantly inhibited = relative activity below 50%)?
**A.** The value was “showed resistance to inhibition by all metal ions tested”.

**Q.** And the “Effect of EDTA chelation on enzyme activity” value ([5]; with and without EDTA chelation)?
**A.** The value was “not affected”.

**Q.** What about the “Relative Activity” value ([6]; CTAB 1 mM) of the same molecule?
**A.** The value was 13.1 ± 1.9%.

**Q.** And the “Relative Activity” value ([6]; DTT 1 mM)?
**A.** The value was 78.9% and 78.9 ± 4.2%.

**Q.** And the “Relative Activity” value ([6]; SDS 0.1%)?
**A.** The value was 6% and 6.1 ± 0.4%.

**Q.** And the “Relative Activity” value ([6]; Triton X-100 0.1%)?
**A.** The value was 42.3% and 42.2 ± 1.1%.

**Q.** What about the “Relative Activity” value ([6]; Tween 20 0.1%) of the same molecule?
**A.** The value was 87.5% and 87.5 ± 2.3%.

**Q.** And the “Relative Activity” value ([6]; Tween 20 1%)?
**A.** Its value is 40.1% and 40.1 ± 0.9%.

**Q.** And the “Relative Activity” value ([6]; Tween 80 1%)?
**A.** Its value is 54.5% and 54.5 ± 0.7%.

**Q.** What about the “Relative Activity” value ([6]; β-mercaptoethanol 1 mM) of the same molecule?
**A.** Its value is 117.9% and 117.9 ± 0.3%.
